Measured values reported in patent publication US20260218138A1, “ENGINEERED ACYLTRANSFERASES HAVING ALTERED SUBSTRATE SPECIFICITY” (KEZBIOSOLUTIONS GMBH, priority 2022, published 2026).
Residue numbers refer to the chain shown, from its start. Names may count otherwise.

B1: Mutant A35: engineered murine acyltransferase, mutations T161L F184L R286L K186D R300D (protein)
chain: NKRPLWFICSGMGTQWRGMGLSLMRLDSFRESILRSDEAVKPLGVKVSDLLLSTDERTFDDIVHAFVSLTAIQIALIDLLTSVGLKPDGIIGHSLGEVACGYADGCLSQREAVLAAYWRGQCIKDAHLPPGSMAAVGLSWEECKQRCPAGVVPACHNSEDLVTISGPQAAVNEFVEQLKQEGVLADEVRTGGLAFHSYFMEGIAPTLLQALKKVIREPRPRSARWLSTSIPEAQWQSSLARTSSAEYNVNNLVSPVLFQEALWHIPEHAVVLEIAPHALLQAVLKLGVKSSCTIIPLMKDDHKDNLEFFLTNLGKVHLT
B2: Mutant A48: engineered murine acyltransferase, mutations T161A F184E R286D K186D D160R (protein)
chain: B1 chain with D160R, L161A, L184E, L286D, D300R
B3: Mutant A13: engineered murine acyltransferase, mutations K186D R300E (protein)
chain: B1 chain with L161T, L184F, L286R, D300E
B4: Mutant A07: engineered murine acyltransferase, mutation K186D (protein)
chain: B1 chain with L161T, L184F, L286R, D300R
B5: Mutant A04: engineered murine acyltransferase, mutations T161A F184A K186A R286A (protein)
chain: B1 chain with L161A, L184A, D186A, L286A, D300R
B6: Mutant A08: engineered murine acyltransferase, mutation K285D (protein)
chain: B1 chain with L161T, L184F, D186K, K285D, L286R, D300R
B7: (WT): wild type murine FAS malonyl-acetyl-transferase (MAT), no mutation (protein, listed as Mus musculus)
chain: B1 chain with L161T, L184F, D186K, L286R, D300R
B8: Mutant A10: engineered murine acyltransferase, mutation R300D (protein)
chain: B1 chain with L161T, L184F, D186K, L286R
B9: Mutant A03: engineered murine acyltransferase, mutations T161A F184A R286A (protein)
chain: B1 chain with L161A, L184A, D186K, L286A, D300R
B10: Mutant A15: engineered murine acyltransferase, mutations K186E R300E (protein)
chain: B1 chain with L161T, L184F, D186E, L286R, D300E
B11: Mutant A05: engineered murine acyltransferase, mutation K186E (protein)
chain: B1 chain with L161T, L184F, D186E, L286R, D300R
B12: Mutant A02: engineered murine acyltransferase, mutation T161Y (protein)
chain: B1 chain with L161Y, L184F, D186K, L286R, D300R
B13: Mutant A12: engineered murine acyltransferase, mutations K186D R300D (protein)
chain: B1 chain with L161T, L184F, L286R
B14: Mutant A01: engineered murine acyltransferase, mutation T161A (protein)
chain: B1 chain with L161A, L184F, D186K, L286R, D300R
B15: Mutant A11: engineered murine acyltransferase, mutation R300E (protein)
chain: B1 chain with L161T, L184F, D186K, L286R, D300E
B16: Mutant A14: engineered murine acyltransferase, mutations K186E R300D (protein)
chain: B1 chain with L161T, L184F, D186E, L286R

Experiment: In-depth kinetics: thiol quantification assay (ThioGlo), malonyl transfer from non-CoA substrate to ACP
Format: biochemical, murine
Conditions: substrate B (3-Oxo-3-[[2-[(1-oxohexyl)amino]ethyl]thio]-propanoic acid), acceptor ACP fixed at 85 μM, apparent parameters
Description: (§1) Y-axes show turnover in s^−1 and x-axes show substrate concentration in μM. Apparent kinetic parameters at a fixed acceptor concentration of ACP of 85 μM were determined by fitting the data points with the Michaelis-Menten function. Shown error bares reflect standard deviations from triplicates.
To verify the re-engineered mutant activity, having a substrate specificity altered from natural CoA substrates to non-CoA substrates, an alternative method to quantify specific turnover rates for non-CoA substrates was established. Such non-CoA substrates are not detectable by the enzyme-coupled assay. We used a thiol-sensitive fluorophore (ThioGlo4; Yi et al. 2009) to quantify the released free thiol groups from the substrate 3-Oxo-3-[[2-[(1-oxohexyl)amino]ethyl]thio]-propanoic acid after the enzyme-specific transfer of the malonyl moiety to a non-thiol acceptor. Briefly, three solutions were prepared in either a twofold concentration or as 4× concentrated stocks in the assay buffer. […] Free thiols were detected by adding 10 μL of 120 μM ThioGlo in the buffer 250 mM potassium phosphate, 1 mM EDTA and 10% glycerol, mixing and fluorescence detection at the microplate reader (ClarioStar, BMG labtech) using the following settings: 400-20 nm; emission: 465-20 nm; gain: 700; focal height: 12.5 mm; flashes: 20; orbital averaging: off. […]
(§2) In-depth kinetic analysis results allowing a comparison of enzyme kinetic parameters for the transfer of malonyl-moieties from either Mal-CoA or 3-Oxo-3-[[2-[(1-oxohexyl)amino]ethyl]thio]-propanoic acid to the ACP are shown for a representative mutant (A35) herein. Enzyme kinetics were determined with the established enzyme-coupled assay for Mal-CoA kinetics and a variation of the new thiol quantifying assay using ThioGlo.
A variation of the thiol quantification assay in Example 5 was established to be able to separate the liberated thiol groups from 3-Oxo-3-[[2-[(1-oxohexyl)amino]ethyl]thio]-propanoic acid after acyl-transfer from the thiol groups of the acceptor ACP. […]

For B1, the Km was 30 µM.

In the case of B1, the kcat is reported as 5.75 s⁻¹.

Same assay, conditions: substrate B (non-CoA substrate), acceptor ACP; kcat/Km relative to substrate A (Mal-CoA)

Molecule B1 has a Factor of 467.

Experiment: Screen: transfer of malonyl-moieties from Mal-CoA to N-(2-mercaptoethyl)-hexanamide (enzyme-coupled assay)
Format: biochemical, murine
Conditions: fixed substrate and acceptor concentrations; FIG. 4
Description: Specific transfers from Mal-CoA to N-(2-mercaptoethyl)-hexanamide were analyzed at fixed substrate and acceptor concentrations. […] Shown error bares reflect standard deviations from triplicates.
Further engineered mutants were expressed, purified and analyzed, building up on the previous studies. A screen for fifty different exemplary mutants was performed analyzing the transfer of malonyl-moieties from CoA to N-(2-mercaptoethyl)-hexanamide. Four solutions were prepared as 4× concentrated stocks in the assay buffer. Solution 1 contained the acyltransferases at the concentration range of 0.01 μM-10 μM and were arranged in four groups depending on their individual turnover rates to achieve good signal to noise ratios. Solution 2 contained the enzyme-coupled system including 8 mM α-ketoglutaric acid, 1.6 mM NAD+, 1.6 mM TPP and 60 mU/100 μL αKGDH. Solution 3 contained a fixed concentration of malonyl (Mal)-CoA at 200 μM and solution 4 contained the acceptor N-(2-mercaptoethyl)-hexanamide at 200 μM. 5 μL of Solutions 1-3 were pipetted into a 384-well Small Volume HiBase Microplates (Greiner Bio-one) and mixed manually. The reactions were started by adding 5 μL of solution 4 with an automatic multichannel pipette (ClipTip). The reaction progress was recorded using the following settings: 348-20 nm; emission: 476-20 nm; gain: 1700; focal height: 12.1 mm; flashes: 10; orbital averaging: off. […]

In the case of B2, the “turnover rate, transfer from Mal-CoA to N-(2-mercaptoethyl)-hexanamide” value is reported as “did not give a detectable signal”.

Experiment: Enzyme-coupled assay: transfer of acyl-moieties from MMal-CoA to the ACP
Format: biochemical
Conditions: substrate MMal-CoA, acceptor ACP from murine FAS
Description: (§3) An enzyme-coupled assay was performed to analyze the transfer of acyl-moieties from CoA to the ACP. Four solutions were prepared as 4× concentrated stocks in the assay buffer. Solution 1 contained the acyltransferase at the concentration range of 0.01 μM-10 μM, depending on the transfer kinetics to achieve good signal to noise ratios. Solution 2 contained the enzyme-coupled system including 8 mM α-ketoglutaric acid, 1.6 mM NAD+, 1.6 mM TPP and 60 mU/100 μL αKGDH. Solution 3 contained the methylmalonyl (MMal)-CoA at concentrations between 0.1 μM and 1,000 μM and solution 4 contained the ACP from murine FAS as a standalone protein at 240 μM. 5 μL of Solutions 1-3 were pipetted into a 384-well Small Volume HiBase Microplates (Greiner Bio-one) and mixed manually. The reactions were started by adding solution 4 with the dispenser system of the microplate reader (ClarioStar, BMG labtech). The reaction progress was recorded using the following settings: 348-20 nm; emission: 476-20 nm; gain: 1500; focal height: 11.9 mm; flashes: 17; orbital averaging: off.

Going from B3 to B4, the Km falls from 686 µM to 18.6 µM (37-fold).

Compared with B5, B6 is 66-fold lower in Km: 7.24 µM for the first, 0.11 µM for the second.

Going from B7 to B8, the Km rises from 0.53 µM to 5.06 µM (9.5-fold).

Going from B9 to B10, the Km rises from 3.41 µM to 58.4 µM (17-fold).

Going from B11 to B12, the Km rises from 14.2 µM to 38.8 µM (2.7-fold).

First: B13
Second: B14
The Km of the first is 45-fold higher: 66.2 µM for the first, 1.47 µM for the second.

First: B15
Second: B16
The Km of the first is 65-fold lower: 3.33 µM for the first, 218 µM for the second.

First: B3
Second: B4
The kcat of the first is 2-fold higher: 0.190 s⁻¹ for the first, 0.093 s⁻¹ for the second.

Going from B5 to B6, the kcat rises from 0.013 s⁻¹ to 0.133 s⁻¹ (10-fold).

Going from B7 to B8, the kcat falls from 1.297 s⁻¹ to 0.582 s⁻¹ (2.2-fold).

B9 and B10 are within 1.5-fold of each other in kcat: 0.021 s⁻¹ for the first, 0.030 s⁻¹ for the second.

Going from B11 to B12, the kcat rises from 0.101 s⁻¹ to 0.428 s⁻¹ (4.2-fold).

Going from B13 to B14, the kcat rises from 0.019 s⁻¹ to 0.051 s⁻¹ (2.7-fold).

Going from B15 to B16, the kcat falls from 0.834 s⁻¹ to 0.051 s⁻¹ (16-fold).

Experiment: In-depth kinetics: enzyme-coupled assay, malonyl transfer from Mal-CoA to ACP
Format: biochemical, murine
Conditions: substrate A (Mal-CoA), acceptor ACP fixed at 85 μM, apparent parameters
Description: as §1, §3, §2
Enzyme-coupled assay was performed as described in Example 3 with 4× concentrated stocks. The enzyme concentration of A35 in Solution 1 was 4.2 μM, the substrate concentrations of Mal-CoA in Solutions 3 were between 8-400 μM and the acceptor concentration of ACP in Solution 4 was 340 μM.

With B1 the Km was 25 µM.

B1 showed a kcat of 0.01 s⁻¹.

Same assay, conditions: substrate A (Mal-CoA), acceptor ACP; kcat/Km relative to substrate A

Molecule B1 has a Factor of 1.

Experiment: not given
Conditions: Comparative data from Rittner et al. 2018; cited from earlier work

For B7, the Km is given as 0.62 µM.

For B7, the kcat is given as 4.000 s⁻¹.
